In patent US6537804B1, “BCR-ABL directed compositions and uses for inhibiting Philadelphia chromesome stimulated cell growth” (Board of Regents, The University of Texas Systems, priority 1995, dated 2003):
Non-standard residues stand in square brackets, D forms with d. No end group written: not given here. pS = N[C@@H](COP(=O)(O)O)C(=O)O

Experiments:
[1] = target: T1, P185 BCR-ABL (Homo sapiens, UniProt P00519+P11274); test: Bcr-Abl autokinase (immune complex kinase) assay; format: biochemical; details: for Inhibition of Bcr-Abl tyrosine kinase activity (autophosphorylation): 50 μg of peptide added to P185 BCR-ABL immune complexes from SUP B15 cells
T1 construct: endogenous in cells; host or cells: SUP-B15 (Ph1-positive ALL cell line)
Method: FIG. 21. Phosphoserine Bcr peptide pS354 S17K (SEQ ID NO:22) inhibits the Bcr-Abl tyrosine kinase activity. The SUP B15 cell line derived from a patient with Bcr-Abl-positive acute lymphocytic leukemia (ALL) were grown in culture; cells were lysed and the Bcr-Abl oncoprotein immunoprecipitated with a monoclonal antibody p6D (anti-Abl 51-64). The immune complexes were mixed with either no peptide or 50 μg of peptide prior to addition of the kinase activating buffer containing [γ-^32P]ATP. After the assay was completed, the proteins were fractionated by SDS gel electrophoresis. Radioactive proteins were detected by phosphoimage analysis. Lane 1, no peptide; lane 2, 50 μg of pS354 S17K; lane 3, 50 μg of unphosphorylated S17K.
FIG. 23A, FIG. 23B and FIG. 23C. A Bcr fragment expressed in COS-1 cells inhibits the Bcr-Abl tyrosine kinase in vitro. In these studies, the Bcr fragment was expressed in COS-1 cells, then isolated by immunoprecipitation with anti-Bcr 181-194 antibody. This immune complex was isolated by binding to protein A Sepharose beads; these immune complexes were added to protein A Sepharose beads containing P185 BCR-ABL harvested from SUP B15 leukemic cells with anti-Abl 51-64. The autokinase reaction was performed to measure the tyrosine kinase activity of Bcr-Abl.
Immunokinase Assay: The immunokinase assays were performed as described by Campbell et al. (1990) with modifications. The cells are lysed by homogenizing the cell pellet in two different lysis buffers at 0° C. in a tight fitting Wheaton homogenizer (either 0.1% Triton-X100, 100 mM NaCl, 5 mM EDTA, 10 mM sodium phosphate, pH 7.2 or 1% Triton-X100, 100 mM NaCl, 0.5% sodium deoxycholate, 0.1% SDS, 5 mM EDTA, 10 mM sodium phosphate pH 7.2). Both buffers were supplemented with 30 mM sodium pyrophosphate, 100 KIU aprotinin, 1 mM benzamidine, 1 mM phenylmethylsulfonyl fluoride and 0.2 mM sodium vanadate.
Immunoprecipitation reactions were carried out utilizing 20-40 μl of the respective anti-peptide rabbit sera or 5 μl of monoclonal antibody at 0° C. for 1 hour. Blocked immunoprecipitations refer to those immunoprecipitation reactions performed with antisera that have been preincubated with excess cognate peptide to specifically block the anti-peptide antibodies.
The resulting antigen-antibody immunoprecipitates were collected with 30 μl of 50% protein A-Sepharose (Pharmacia, Uppsala, Sweden), pelleted and washed with RIPA buffer (0.1% Triton X-100, 0.05% SDS, 0.5% sodium deoxycholate, 100 mM NaCl in 10 mM phosphate buffer, pH 7.2), wash buffer (0.1% Triton X-100, 100 mM NaCl, in 10 mM phosphate buffer, pH 7.2) and finally with 50 mM Tris buffer, pH 7.2. […]

[2] = target: T2, P210 BCR-ABL (Homo sapiens, UniProt P00519+P11274); test: In vivo tyrosine phosphorylation of truncated Bcr proteins in COS-1 cells, anti-pTyr Western blot; format: cell-based; details: COS-1 cells coexpressing p210 Bcr-Abl
T2 construct: expressed in transfected cells; host or cells: COS-1
Excerpt: FIG. 6A and FIG. 6B. In vivo tyrosine phosphorylation of truncated Bcr first exon sequences by Bcr-Abl. COS-1 vectors expressing Bcr150, Bcr221, and Bcr413 proteins, respectively, were expressed in COS-1 cells in the presence and absence of […].
The next tyrosine is at residue 177, and it is expected to be phosphorylated by Bcr-Abl (Puil et al., 1994). Bcr221 is tyrosine phosphorylated, but as with Bcr413, only in the presence of Bcr-Abl.
Transient transfections of COS1 cells were performed by the diethylaminoethyl (DEAE)-Dextran procedure. Transfection was initiated when COS1 cells were about 60%-80% confluent. After washing once with phosphate-buffered saline (PBS) and once with Tris-buffered Saline-0.02% Dextrose (TBS-D), cells were incubated with TBS-D containing 0.2 mg/ml DEAE-Dextran and 2 μg/ml of each added plasmid. The supernatant was then removed after 5-10 minutes when the cells started to round up and shrink.
After washing once with TBS-D and once with PBS, the cells were incubated in DMEM supplemented with 10% fetal calf serum and 100 μg/ml of chloroquine at 37° C. The chloroquine containing media was removed after 3-5 hours and the cells were washed three times with DMEM without fetal calf serum. The cells were then incubated in DMEM supplemented with 10% fetal calf serum at 37° C. for 2-3 days before harvesting.
COS-1 vectors expressing Bcr159, Bcr221, and Bcr413 proteins, respectively, were expressed in COS-1 cells in the presence and absence of p210 Bcr-Abl.

[3] = tested on: casein; test: Immune complex kinase assay of mutant P160 BCR, transphosphorylation of casein; format: biochemical; details: mutant P160 BCR expressed in COS-1 cells
Excerpt: Mutant forms of P160^BCR were expressed in COS-1 cells and tested for serine/threonine kinase activities in immune complex kinase assays.
Using the intensities of the P160^BCR bands as an indication of the amount of active P160^BCR in the immune complex and the intensities of the casein bands as a measure of transphosphorylation activity, the transphosphorylation activity of the Y360F Bcr mutant was reduced about sevenfold, compared with that of the wild type. Similarly, the Y360F Bcr mutant was also defective in transphosphorylating another exogenous substrate, histone H1.
The amounts of Bcr within these immune complexes were quantitated in two ways. In a first method, the amounts of Bcr mutants would be underestimated by about 10%, compared with that of the wild type. On the basis of these measurements, the specific activity of transkinase activity (casein intensity/P160^BCR intensity) of the Y360F Bcr mutant (0.03) was reduced more than 20-fold in this study, compared with that of the wild type.
The second method of estimating the amounts of P160^BCR in immune complexes involved the Western blotting of these immune complexes with an anti-Bcr antibody. The specific activity of Y360F was reduced by about sixfold. […] By using autophosphorylation of the Bcr protein as a measure of its relative amount, the reduction of Bcr's transkinase by the Y360F mutation was about sevenfold, confirming the results obtained by the Western blot method.

T2 sequence (P11274+P00519 fused): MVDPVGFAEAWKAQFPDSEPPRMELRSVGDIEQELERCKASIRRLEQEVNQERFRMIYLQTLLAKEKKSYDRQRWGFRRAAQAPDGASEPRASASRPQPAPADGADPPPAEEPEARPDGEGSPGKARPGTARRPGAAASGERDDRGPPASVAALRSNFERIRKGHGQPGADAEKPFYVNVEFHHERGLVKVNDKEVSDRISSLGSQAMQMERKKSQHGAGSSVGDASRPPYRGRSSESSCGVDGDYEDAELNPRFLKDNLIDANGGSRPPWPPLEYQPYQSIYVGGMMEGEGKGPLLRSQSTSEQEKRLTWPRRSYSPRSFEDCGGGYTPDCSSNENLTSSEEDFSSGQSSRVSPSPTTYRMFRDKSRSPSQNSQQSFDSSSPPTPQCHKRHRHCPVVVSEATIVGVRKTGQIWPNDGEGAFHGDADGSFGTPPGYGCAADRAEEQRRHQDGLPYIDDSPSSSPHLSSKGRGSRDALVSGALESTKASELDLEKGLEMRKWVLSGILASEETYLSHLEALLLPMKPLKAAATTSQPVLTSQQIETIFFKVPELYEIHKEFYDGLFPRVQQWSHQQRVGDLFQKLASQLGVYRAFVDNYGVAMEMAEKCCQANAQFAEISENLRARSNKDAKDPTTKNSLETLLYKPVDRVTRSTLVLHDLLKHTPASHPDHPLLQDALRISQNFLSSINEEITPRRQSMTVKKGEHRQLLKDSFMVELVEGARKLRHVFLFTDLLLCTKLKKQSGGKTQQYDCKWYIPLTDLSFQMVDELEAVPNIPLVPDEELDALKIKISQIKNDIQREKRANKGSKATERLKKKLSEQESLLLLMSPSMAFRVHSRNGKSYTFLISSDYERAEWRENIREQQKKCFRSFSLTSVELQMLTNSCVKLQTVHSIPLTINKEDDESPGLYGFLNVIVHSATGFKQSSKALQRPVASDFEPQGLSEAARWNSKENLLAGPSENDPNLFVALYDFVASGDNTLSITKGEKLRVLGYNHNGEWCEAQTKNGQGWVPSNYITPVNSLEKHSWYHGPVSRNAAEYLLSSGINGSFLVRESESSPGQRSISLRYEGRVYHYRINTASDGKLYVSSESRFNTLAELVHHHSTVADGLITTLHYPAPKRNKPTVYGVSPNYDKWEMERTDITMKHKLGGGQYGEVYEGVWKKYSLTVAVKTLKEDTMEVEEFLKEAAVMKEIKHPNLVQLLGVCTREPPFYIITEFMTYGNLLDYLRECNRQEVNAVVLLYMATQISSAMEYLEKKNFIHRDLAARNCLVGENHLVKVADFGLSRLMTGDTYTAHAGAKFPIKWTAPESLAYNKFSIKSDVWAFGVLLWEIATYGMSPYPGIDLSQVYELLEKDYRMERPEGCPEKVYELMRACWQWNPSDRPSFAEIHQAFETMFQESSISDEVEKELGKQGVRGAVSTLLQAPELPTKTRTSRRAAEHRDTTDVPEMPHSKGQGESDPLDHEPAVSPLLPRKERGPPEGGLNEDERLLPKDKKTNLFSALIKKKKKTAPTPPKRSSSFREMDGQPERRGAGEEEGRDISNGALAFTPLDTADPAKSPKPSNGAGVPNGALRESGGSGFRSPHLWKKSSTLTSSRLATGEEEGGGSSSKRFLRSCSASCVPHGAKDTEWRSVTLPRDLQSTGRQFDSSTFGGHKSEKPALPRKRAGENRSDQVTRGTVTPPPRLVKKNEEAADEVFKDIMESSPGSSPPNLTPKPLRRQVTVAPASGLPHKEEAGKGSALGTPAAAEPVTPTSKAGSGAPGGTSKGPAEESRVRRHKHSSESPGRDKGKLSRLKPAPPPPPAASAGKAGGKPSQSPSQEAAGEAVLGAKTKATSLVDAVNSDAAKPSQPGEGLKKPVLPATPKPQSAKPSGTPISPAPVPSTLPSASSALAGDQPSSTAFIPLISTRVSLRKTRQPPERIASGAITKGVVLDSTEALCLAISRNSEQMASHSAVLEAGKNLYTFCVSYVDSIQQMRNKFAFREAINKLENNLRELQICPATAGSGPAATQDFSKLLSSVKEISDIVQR
T1 sequence (P11274+P00519 fused): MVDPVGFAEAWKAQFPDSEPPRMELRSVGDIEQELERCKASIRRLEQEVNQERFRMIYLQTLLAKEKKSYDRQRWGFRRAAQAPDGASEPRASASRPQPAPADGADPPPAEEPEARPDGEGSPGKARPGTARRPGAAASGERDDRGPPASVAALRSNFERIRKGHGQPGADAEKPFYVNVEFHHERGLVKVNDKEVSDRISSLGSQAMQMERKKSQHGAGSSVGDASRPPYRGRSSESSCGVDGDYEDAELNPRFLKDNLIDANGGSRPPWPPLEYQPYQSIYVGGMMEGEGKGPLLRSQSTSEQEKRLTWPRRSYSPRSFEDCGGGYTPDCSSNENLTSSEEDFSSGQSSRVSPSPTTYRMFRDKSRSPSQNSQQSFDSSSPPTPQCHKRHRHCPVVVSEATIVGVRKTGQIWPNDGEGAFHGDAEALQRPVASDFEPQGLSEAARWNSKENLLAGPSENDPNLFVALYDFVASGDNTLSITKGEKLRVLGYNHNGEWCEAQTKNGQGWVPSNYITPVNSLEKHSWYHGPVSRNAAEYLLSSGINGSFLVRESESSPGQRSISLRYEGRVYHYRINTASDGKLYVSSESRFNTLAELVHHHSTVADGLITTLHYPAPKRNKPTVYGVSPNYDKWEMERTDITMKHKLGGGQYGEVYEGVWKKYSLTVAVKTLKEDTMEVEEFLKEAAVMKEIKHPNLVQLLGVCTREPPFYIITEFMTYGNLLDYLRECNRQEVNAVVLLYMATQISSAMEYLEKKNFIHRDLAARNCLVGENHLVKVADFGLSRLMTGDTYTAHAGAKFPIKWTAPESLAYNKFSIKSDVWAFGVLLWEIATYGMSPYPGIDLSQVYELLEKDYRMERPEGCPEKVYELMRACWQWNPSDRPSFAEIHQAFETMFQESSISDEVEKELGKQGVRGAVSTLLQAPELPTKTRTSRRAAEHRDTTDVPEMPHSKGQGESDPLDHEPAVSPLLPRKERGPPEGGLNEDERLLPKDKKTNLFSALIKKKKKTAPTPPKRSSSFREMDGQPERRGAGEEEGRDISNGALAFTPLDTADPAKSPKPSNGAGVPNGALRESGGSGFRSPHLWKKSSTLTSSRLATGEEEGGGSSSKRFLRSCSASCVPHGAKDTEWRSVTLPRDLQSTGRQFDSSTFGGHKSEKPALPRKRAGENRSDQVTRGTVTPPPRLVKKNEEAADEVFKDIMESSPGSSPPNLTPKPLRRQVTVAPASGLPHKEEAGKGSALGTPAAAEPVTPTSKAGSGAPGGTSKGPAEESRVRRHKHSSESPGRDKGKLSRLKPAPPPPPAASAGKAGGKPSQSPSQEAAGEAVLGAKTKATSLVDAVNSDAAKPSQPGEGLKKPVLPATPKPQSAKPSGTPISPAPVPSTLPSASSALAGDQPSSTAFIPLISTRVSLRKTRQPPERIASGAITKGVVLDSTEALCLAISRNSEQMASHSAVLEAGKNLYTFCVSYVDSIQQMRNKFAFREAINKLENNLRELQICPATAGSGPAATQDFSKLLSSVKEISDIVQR

For “unphosphorylated S17K: unphosphorylated form of Bcr peptide S17K, Bcr residues 350 to 366 (SSRVSPSPTTYRMFRDK)”, the “Inhibition of Bcr-Abl tyrosine kinase activity (autophosphorylation)” value [1] was “little affect”.

“350-SSRVpS*PSPTTYRMFRDK-366 (SSRV[pS]PSPTTYRMFRDK) [pS354 S17K]” was tested, and the “Inhibition of Bcr-Abl tyrosine kinase activity (autophosphorylation)” value [1] was “strongly inhibited”.

B1: Bcr221: amino acids 1-221 of Bcr, N-terminal fragment (protein)
chain: MVDPVGFAEAWKAQFPDSEPPRMELRSVGDIEQELERCKASIRRLEQEVNQERFRMIYLQTLLAKEKKSYDRQRWGFRRAAQAPDGASEPRASASRPQPAPADGADPPPAEEPEARPDGEGSPGKARPGTARRPGAAASGERDDRGPPASVAALRSNFERIRKGHGQPGADAEKPFYVNVEFHHERGLVKVNDKEVSDRISSLGSQAMQMERKKSQHGAGS
With B1 the “Tyrosine phosphorylation by Bcr-Abl in cells” value (“Tyrosine phosphorylation” below) [2] was “induces tyrosine phosphorylation”.

B2: Bcr Y283F: P160 BCR with tyrosine 283 to phenylalanine mutation (protein, UniProt P11274 1-1271, looked up, variant Y283F)
Breakpoint cluster region …: MVDPVGFAEAWKAQFPDSEPPRMELRSVGDIEQELERCKASIRRLEQEVNQERFRMIYLQTLLAKEKKSYDRQRWGFRRAAQAPDGASEPRASASRPQPAPADGADPPPAEEPEARPDGEGSPGKARPGTARRPGAAASGERDDRGPPASVAALRSNFERIRKGHGQPGADAEKPFYVNVEFHHERGLVKVNDKEVSDRISSLGSQAMQMERKKSQHGAGSSVGDASRPPYRGRSSESSCGVDGDYEDAELNPRFLKDNLIDANGGSRPPWPPLEYQPYQSIFVGGMMEGEGKGPLLRSQSTSEQEKRLTWPRRSYSPRSFEDCGGGYTPDCSSNENLTSSEEDFSSGQSSRVSPSPTTYRMFRDKSRSPSQNSQQSFDSSSPPTPQCHKRHRHCPVVVSEATIVGVRKTGQIWPNDGEGAFHGDADGSFGTPPGYGCAADRAEEQRRHQDGLPYIDDSPSSSPHLSSKGRGSRDALVSGALESTKASELDLEKGLEMRKWVLSGILASEETYLSHLEALLLPMKPLKAAATTSQPVLTSQQIETIFFKVPELYEIHKEFYDGLFPRVQQWSHQQRVGDLFQKLASQLGVYRAFVDNYGVAMEMAEKCCQANAQFAEISENLRARSNKDAKDPTTKNSLETLLYKPVDRVTRSTLVLHDLLKHTPASHPDHPLLQDALRISQNFLSSINEEITPRRQSMTVKKGEHRQLLKDSFMVELVEGARKLRHVFLFTDLLLCTKLKKQSGGKTQQYDCKWYIPLTDLSFQMVDELEAVPNIPLVPDEELDALKIKISQIKNDIQREKRANKGSKATERLKKKLSEQESLLLLMSPSMAFRVHSRNGKSYTFLISSDYERAEWRENIREQQKKCFRSFSLTSVELQMLTNSCVKLQTVHSIPLTINKEDDESPGLYGFLNVIVHSATGFKQSSNLYCTLEVDSFGYFVNKAKTRVYRDTAEPNWNEEFEIELEGSQTLRILCYEKCYNKTKIPKEDGESTDRLMGKGQVQLDPQALQDRDWQRTVIAMNGIEVKLSVKFNSREFSLKRMPSRKQTGVFGVKIAVVTKRERSKVPYIVRQCVEEIERRGMEEVGIYRVSGVATDIQALKAAFDVNNKDVSVMMSEMDVNAIAGTLKLYFRELPEPLFTDEFYPNFAEGIALSDPVAKESCMLNLLLSLPEANLLTFLFLLDHLKRVAEKEAVNKMSLHNLATVFGPTLLRPSEKESKLPANPSQPITMTDSWSLEVMSQVQVLLYFLQLEAIPAPDSKRQSILFSTEV
B2 was tested, and the “Ability to transphosphorylate casein compared with wild-type Bcr” value [3] was “not significantly altered”.

B3: Bcr fragment (64-413): Bcr sequences from amino acid 64 to 413 with both A and B serine-rich boxes, expressed in COS-1 cells (protein)
chain: AKEKKSYDRQRWGFRRAAQAPDGASEPRASASRPQPAPADGADPPPAEEPEARPDGEGSPGKARPGTARRPGAAASGERDDRGPPASVAALRSNFERIRKGHGQPGADAEKPFYVNVEFHHERGLVKVNDKEVSDRISSLGSQAMQMERKKSQHGAGSSVGDASRPPYRGRSSESSCGVDGDYEDAELNPRFLKDNLIDANGGSRPPWPPLEYQPYQSIYVGGMMEGEGKGPLLRSQSTSEQEKRLTWPRRSYSPRSFEDCGGGYTPDCSSNENLTSSEEDFSSGQSSRVSPSPTTYRMFRDKSRSPSQNSQQSFDSSSPPTPQCHKRHRHCPVVVSEATIVGVRKTGQI
For B3, the “Inhibition of Bcr-Abl tyrosine kinase activity (P185 autokinase)” value ([1]; immune complexes on protein A Sepharose beads added to P185 BCR-ABL immunoprecipitates from SUP B15) was “potent inhibitor” and the “Inhibitory activity towards Bcr-Abl kinase after boiling” value ([1]; immunoprecipitate boiled for a few minutes prior to addition to the kinase assay) was “strongly decreased”.

B4: Bcr159: amino acids 1-159 of Bcr, N-terminal fragment (protein)
chain: MVDPVGFAEAWKAQFPDSEPPRMELRSVGDIEQELERCKASIRRLEQEVNQERFRMIYLQTLLAKEKKSYDRQRWGFRRAAQAPDGASEPRASASRPQPAPADGADPPPAEEPEARPDGEGSPGKARPGTARRPGAAASGERDDRGPPASVAALRSNFE
B4 was tested, and the “Tyrosine phosphorylation” value [2] was “not”.

B5: Bcr413: amino acids 1-413 of Bcr, N-terminal fragment (protein)
chain: MVDPVGFAEAWKAQFPDSEPPRMELRSVGDIEQELERCKASIRRLEQEVNQERFRMIYLQTLLAKEKKSYDRQRWGFRRAAQAPDGASEPRASASRPQPAPADGADPPPAEEPEARPDGEGSPGKARPGTARRPGAAASGERDDRGPPASVAALRSNFERIRKGHGQPGADAEKPFYVNVEFHHERGLVKVNDKEVSDRISSLGSQAMQMERKKSQHGAGSSVGDASRPPYRGRSSESSCGVDGDYEDAELNPRFLKDNLIDANGGSRPPWPPLEYQPYQSIYVGGMMEGEGKGPLLRSQSTSEQEKRLTWPRRSYSPRSFEDCGGGYTPDCSSNENLTSSEEDFSSGQSSRVSPSPTTYRMFRDKSRSPSQNSQQSFDSSSPPTPQCHKRHRHCPVVVSEATIVGVRKTGQI
For B5, the “Tyrosine phosphorylation” value [2] was “induces tyrosine phosphorylation”.
